Measurements as given in patent publication US20240261333A1 (published 2024).

Tests used:
Experiment in all cases: co-IP with anti-FLAG, N-FLAG B3GNT2, mass spectrometry
RPS26 = RPS26 (human, UniProt P62854 2-115)
Method: (§1) Cells were plated in 10-cm cell culture dishes and grown to 60-80% confluency. For each condition, two biological replicates were harvested for co-IP. Cells were washed with PBS and 4 mL of lysis buffer (20 mM HEPES, 1% Triton X-100, 150 mM NaCl, 1 mM EDTA, and 10% glycerol) containing protease inhibitor cocktail was added. Cells were scraped and lysate was incubated at 4° C. under rotary agitation for 1 h. Lysate was centrifuged at 14,000×g for 10 min at 4° C. Supernatant was transferred to a new tube and an aliquot was taken as the input. […] For Western blots, 10 μg/mL Chicken Anti-FLAG (Aves labs ET-DY100) and IgY control (R&D Systems AB-101-C) antibodies were biotinylated (Thermo Fisher Scientific 90407) and added to the respective conditions. Lysates with antibodies were incubated at 4° C. under rotary agitation overnight. For each mL of lysate, 50 μL of Pierce Protein A/G Magnetic Beads (Mass spectrometry; Thermo Fisher Scientific 88803) or Pierce Streptavidin Magnetic Beads (Western blot; Thermo Fisher Scientific 88817) was washed twice with lysis buffer. Lysates with antibodies were added to the beads and incubated at 4° C. under rotary agitation for 4 h. Beads were washed with lysis buffer 3 times and resuspended in lysis buffer for storage.
(§2) Magnetic beads were resuspended in 100 mM Tris pH 7.8, reduced, alkylated and digested with trypsin at 37° ° C. overnight. This solution was subjected to solid phase extraction to concentrate the peptides and remove unwanted reagents followed by injection onto a Shimadzu HPLC with fraction collector. Eight fractions were collected and after concentration were injected on a Waters NanoAcquity HPLC equipped with a self-packed Aeris 3 μm C18 analytical column 0.075 mm by 20 cm, (Phenomenex). Peptides were eluted using standard reverse-phase gradients. The effluent from the column was analyzed using a Thermo Orbitrap Elite mass spectrometer (nanospray configuration) operated in a data dependent manner for 54 minutes. The resulting fragmentation spectra were correlated against the known database using Proteome Discover 1.4 (Thermo Fisher Scientific).

PLOD1 = target: T1, PLOD1 (human, UniProt Q02809 19-727)
T1 construct: also called NP_000293.2 (+1)
T1 sequence (looked up): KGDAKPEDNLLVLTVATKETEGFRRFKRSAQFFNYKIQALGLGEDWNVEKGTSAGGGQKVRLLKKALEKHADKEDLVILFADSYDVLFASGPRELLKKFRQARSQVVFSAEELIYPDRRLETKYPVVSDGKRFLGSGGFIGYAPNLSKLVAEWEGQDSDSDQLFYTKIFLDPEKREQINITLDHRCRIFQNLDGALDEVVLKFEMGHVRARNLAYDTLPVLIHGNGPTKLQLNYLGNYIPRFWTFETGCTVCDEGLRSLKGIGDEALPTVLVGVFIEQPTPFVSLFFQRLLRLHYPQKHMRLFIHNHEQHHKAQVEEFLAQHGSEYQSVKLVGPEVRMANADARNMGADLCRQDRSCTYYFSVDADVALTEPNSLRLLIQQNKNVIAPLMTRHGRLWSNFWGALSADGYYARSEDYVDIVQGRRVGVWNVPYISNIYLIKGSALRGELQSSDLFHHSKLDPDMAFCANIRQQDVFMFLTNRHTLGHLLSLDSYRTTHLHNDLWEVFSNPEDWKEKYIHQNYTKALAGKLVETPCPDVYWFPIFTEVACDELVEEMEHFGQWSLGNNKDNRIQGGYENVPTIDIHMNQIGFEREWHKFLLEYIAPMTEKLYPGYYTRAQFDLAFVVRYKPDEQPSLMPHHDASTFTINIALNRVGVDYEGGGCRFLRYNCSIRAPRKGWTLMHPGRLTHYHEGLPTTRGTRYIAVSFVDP
Method: as §1, §2

RBM14 = target: T2, RBM14 (human, UniProt Q96PK6 1-669)
T2 construct: also called XP_006319.1
T2 sequence (looked up): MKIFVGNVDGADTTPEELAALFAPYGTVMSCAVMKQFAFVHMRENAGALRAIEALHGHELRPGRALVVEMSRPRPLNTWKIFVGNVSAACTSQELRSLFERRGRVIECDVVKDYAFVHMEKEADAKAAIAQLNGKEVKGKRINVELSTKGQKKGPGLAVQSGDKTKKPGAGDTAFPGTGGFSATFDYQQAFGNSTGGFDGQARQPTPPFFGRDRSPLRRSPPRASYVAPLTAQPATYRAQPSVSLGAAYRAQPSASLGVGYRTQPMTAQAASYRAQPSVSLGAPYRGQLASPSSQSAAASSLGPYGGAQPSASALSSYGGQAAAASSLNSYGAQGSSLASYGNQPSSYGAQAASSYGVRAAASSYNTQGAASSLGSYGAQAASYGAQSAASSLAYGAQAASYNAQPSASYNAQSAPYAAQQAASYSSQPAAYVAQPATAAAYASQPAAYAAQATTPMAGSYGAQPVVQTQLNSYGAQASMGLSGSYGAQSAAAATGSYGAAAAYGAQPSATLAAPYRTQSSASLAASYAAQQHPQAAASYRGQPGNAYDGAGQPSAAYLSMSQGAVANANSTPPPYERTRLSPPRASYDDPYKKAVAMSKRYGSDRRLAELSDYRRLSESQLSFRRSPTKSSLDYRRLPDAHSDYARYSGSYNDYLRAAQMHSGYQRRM
Method: as §1, §2

B1: N-terminal FLAG tagged B3GNT2 (enzyme, human, UniProt Q9NY97 1-397, looked up)
chain: MSVGRRRIKLLGILMMANVFIYFIMEVSKSSSQEKNGKGEVIIPKEKFWKISTPPEAYWNREQEKLNRQYNPILSMLTNQTGEAGRLSNISHLNYCEPDLRVTSVVTGFNNLPDRFKDFLLYLRCRNYSLLIDQPDKCAKKPFLLLAIKSLTPHFARRQAIRESWGQESNAGNQTVVRVFLLGQTPPEDNHPDLSDMLKFESEKHQDILMWNYRDTFFNLSLKEVLFLRWVSTSCPDTEFVFKGDDDVFVNTHHILNYLNSLSKTKAKDLFIGDVIHNAGPHRDKKLKYYIPEVVYSGLYPPYAGGGGFLYSGHLALRLYHITDQVHLYPIDDVYTGMCLQKLGLVPEKHKGFRTFDIEEKNKNNICSYVDLMLVHSRKPQEMIDIWSQLQSAHLKC
notes: FLAG-tagged ORF overexpressed in cells; pulled down from lysate with mouse anti-FLAG; also called N-FLAG B3GNT2; N-term FLAG; not shown: N-terminal FLAG tag
RPS26
  co-IP mass spectrometry count: 6

B2: N-terminal FLAG tagged B3GNT2 (enzyme, human, UniProt Q9NY97 1-397, looked up)
chain: B1 chain
notes: FLAG-tagged ORF overexpressed in A375 cells; pulled down from the lysate with mouse anti-FLAG; also called N-FLAG B3GNT2; N-term FLAG; not shown: N-terminal FLAG tag
PLOD1
  co-IP/MS count, N-term FLAG: 0
RBM14
  co-IP/MS count, N-term FLAG: 3
